Measured values reported in the Human Domainome abundance scans (Beltran et al. 2025).
± gives the uncertainty stated by the source.

B1: Spectrin alpha chain, erythrocytic 1, residues 979 to 1036; numbered along this chain, P02549 (parent)
chain: EQRVMALYDFQARSPREVTMKKGDVLTLLSSINKDWWKVEAADHQGIVPAVYVRRLAH
B2: Histidine--tRNA ligase, cytoplasmic, residues 8 to 45; numbered along this chain, P12081 (parent)
chain: EELVKLQGERVRGLKQQKASAELIEEEVAKLLKLKAQL

Variants of: B1
Assay: abundance fitness (aPCA) (normalised: wild type 0, dead -1); higher = more abundant; growth selection in yeast, the domain comes from the species named
Conditions: Homo sapiens

Abundance fitness: each site, then its substitutions
V51: I 0.201 ± 0.17, K 0.525 ± 0.14, L -0.083 ± 0.12, M 0.149 ± 0.12, P 0.173 ± 0.17, Q 0.126 ± 0.19, R 0.643 ± 0.079, S 0.579 ± 0.08, W -0.18 ± 0.15, Y -0.242 ± 0.1
Y52: A 0.089 ± 0.13, E -0.165 ± 0.23, F -0.367 ± 0.16, G -0.659 ± 0.29, H -0.368 ± 0.45, K -0.528 ± 0.22, L -0.284 ± 0.16, M -0.045 ± 0.11, P -0.075 ± 0.26, R -0.53 ± 0.22, S 0.155 ± 0.082, T -0.678 ± 0.17, V -0.682 ± 0.19, W -0.978 ± 0.41
V53: A -0.766 ± 0.25, C 0.039 ± 0.11, L 0.13 ± 0.1, P -0.579 ± 0.42, S -0.819 ± 0.26, T -0.872 ± 0.33, W -0.634 ± 0.43
R54: A -0.351 ± 0.17, D 0.095 ± 0.32, E -0.254 ± 0.33, G -0.491 ± 0.16, H 0.83 ± 0.17, K 0.257 ± 0.17, L -0.963 ± 0.19, M -0.518 ± 0.26, N -0.668 ± 0.13, P -0.292 ± 0.49, Q 0.052 ± 0.26, S -0.588 ± 0.29, V -0.53 ± 0.12, W -0.668 ± 0.34
L56: A -0.882 ± 0.21, C -0.169 ± 0.44, I -0.021 ± 0.12, K -0.417 ± 0.45, M -0.029 ± 0.31, P -0.45 ± 0.38, Q -0.848 ± 0.16, R -0.874 ± 0.2, S -0.006 ± 0.21, T -0.448 ± 0.3, V -0.207 ± 0.23, W -0.982 ± 0.33
A57: C -0.092 ± 0.15, D 0.507 ± 0.19, K 0.933 ± 0.21, N 0.105 ± 0.47, P 0.297 ± 0.14, Q 0.18 ± 0.36, R -0.053 ± 0.16, S 0.236 ± 0.16, T -0.022 ± 0.43, V -0.47 ± 0.23
H58: P 0.358 ± 0.2, R -0.078 ± 0.39, S 0.088 ± 0.31, Y 0.141 ± 0.27

Variants of: B2
Assay: as above
Conditions: Homo sapiens

Abundance fitness: each site, then its substitutions
E1: A -0.62 ± 0.12, C -1.18 ± 0.46, D -0.377 ± 0.14, F -0.386 ± 0.24, H -1.02 ± 0.45, I -0.132 ± 0.16, K -0.165 ± 0.15, L -0.687 ± 0.098, M -0.139 ± 0.15, R -0.992 ± 0.2, S -0.737 ± 0.14, T -0.692 ± 0.11, V -0.661 ± 0.086, W -0.537 ± 0.17, Y -1.05 ± 0.24
E2: A -0.665 ± 0.089, C -1.08 ± 0.3, F -0.274 ± 0.28, G -0.868 ± 0.2, H -0.195 ± 0.079, I -0.369 ± 0.087, K -0.703 ± 0.16, L -0.632 ± 0.094, M -0.636 ± 0.11, N -0.049 ± 0.11, P -0.9 ± 0.11, Q -0.472 ± 0.11, R -0.661 ± 0.1, S -0.327 ± 0.085, T -0.591 ± 0.081, V -0.762 ± 0.085, W -0.97 ± 0.098, Y -0.452 ± 0.11
L3: A -0.162 ± 0.069, C -0.896 ± 0.098, D -0.454 ± 0.11, E 0.203 ± 0.091, F -0.341 ± 0.099, G -0.45 ± 0.1, H -0.362 ± 0.095, I -0.086 ± 0.095, K -0.088 ± 0.11, M 0.156 ± 0.089, N -0.287 ± 0.096, P -0.729 ± 0.082, Q 0.153 ± 0.1, R -0.258 ± 0.12, S -0.066 ± 0.067, T -0.024 ± 0.087, V -0.366 ± 0.074, W -1.54 ± 0.12, Y -0.549 ± 0.077
V4: C -0.46 ± 0.097, D -0.01 ± 0.13, E -0.139 ± 0.088, F -0.109 ± 0.096, G -0.227 ± 0.073, H -0.463 ± 0.089, I -0.013 ± 0.084, K -0.568 ± 0.16, L -0.201 ± 0.083, M -0.079 ± 0.092, N -0.139 ± 0.094, P -0.658 ± 0.092, Q -0.563 ± 0.11, R -0.544 ± 0.077, S -0.264 ± 0.077, T -0.19 ± 0.082, W -0.468 ± 0.12, Y 0.077 ± 0.11
K5: A -0.234 ± 0.085, C -0.531 ± 0.13, E -0.026 ± 0.1, F -0.443 ± 0.084, G -0.407 ± 0.07, H -0.223 ± 0.078, I -0.436 ± 0.099, L -0.394 ± 0.071, M -0.143 ± 0.11, P -0.54 ± 0.078, Q -0.019 ± 0.099, R -0.269 ± 0.088, S -0.531 ± 0.072, V -0.611 ± 0.084, W -0.383 ± 0.13, Y -0.27 ± 0.079
L6: A 0.194 ± 0.071, C -0.436 ± 0.082, E 0.128 ± 0.12, F -0.102 ± 0.1, G -0.171 ± 0.12, H 0.051 ± 0.099, I -0.428 ± 0.22, K 0.155 ± 0.12, M 0.1 ± 0.11, N -0.017 ± 0.1, P -0.211 ± 0.1, Q 0.213 ± 0.09, R 0.051 ± 0.098, S -0.136 ± 0.076, V 0.054 ± 0.078, Y -0.261 ± 0.091
Q7: A -0.348 ± 0.082, C -0.616 ± 0.096, D -0.492 ± 0.09, E -1.63 ± 0.36, F -0.73 ± 0.11, G -0.619 ± 0.09, H -0.507 ± 0.086, I -0.526 ± 0.083, K -0.693 ± 0.18, L -0.515 ± 0.074, M -0.452 ± 0.092, N -0.485 ± 0.12, P -0.595 ± 0.078, R -0.649 ± 0.081, S -0.433 ± 0.068, T -0.357 ± 0.073, V -0.379 ± 0.091, W -1.15 ± 0.12, Y -0.706 ± 0.091
G8: A 0.101 ± 0.09, C -1.04 ± 0.1, D 0.054 ± 0.097, E 0.44 ± 0.11, F -0.287 ± 0.12, H -0.409 ± 0.1, I 0.086 ± 0.12, K 0.377 ± 0.27, L -0.002 ± 0.075, M 0.106 ± 0.15, N -0.075 ± 0.09, P -0.25 ± 0.094, Q 0.194 ± 0.11, R -0.04 ± 0.082, S 0.074 ± 0.068, T 0.217 ± 0.1, V 0.085 ± 0.098, W -0.452 ± 0.27, Y -0.285 ± 0.094
E9: A -0.186 ± 0.091, C -0.5 ± 0.084, D -0.001 ± 0.13, F -0.684 ± 0.097, G -0.357 ± 0.084, H -0.699 ± 0.11, I -0.716 ± 0.097, K -0.324 ± 0.11, L -0.466 ± 0.084, M -0.232 ± 0.1, N 0.035 ± 0.13, P -0.631 ± 0.074, Q -0.379 ± 0.079, R -0.464 ± 0.086, S -0.291 ± 0.081, T -0.246 ± 0.075, V -0.653 ± 0.077, W -0.726 ± 0.19, Y -0.816 ± 0.1
R10: C -0.379 ± 0.087, D -0.084 ± 0.14, E -0.044 ± 0.093, F -0.288 ± 0.1, G -0.229 ± 0.081, H -0.131 ± 0.12, I -0.035 ± 0.13, K 0.245 ± 0.12, L -0.026 ± 0.073, M -0.06 ± 0.098, N -0.198 ± 0.08, P 0.053 ± 0.081, Q -0.097 ± 0.095, S -0.213 ± 0.074, T 0.013 ± 0.081, V 0.039 ± 0.084, W -0.887 ± 0.12, Y -0.125 ± 0.12
V11: A -0.169 ± 0.08, C -1.51 ± 0.16, E 0.055 ± 0.15, F -0.571 ± 0.089, G -0.121 ± 0.09, H -0.209 ± 0.11, I -0.011 ± 0.13, K -0.255 ± 0.094, L -0.189 ± 0.071, M -0.106 ± 0.1, N -0.334 ± 0.096, P -0.01 ± 0.088, Q 0.011 ± 0.091, R -0.03 ± 0.099, S -0.238 ± 0.075, T -0.127 ± 0.084, W -0.374 ± 0.17, Y -0.552 ± 0.11
R12: A 0.218 ± 0.083, D 0.122 ± 0.088, E 0.231 ± 0.099, F -0.172 ± 0.089, G 0.096 ± 0.13, H 0.005 ± 0.075, I -0.077 ± 0.077, L -0.034 ± 0.078, M -0.216 ± 0.14, N -0.022 ± 0.089, Q 0.101 ± 0.087, S 0.098 ± 0.084, T 0.05 ± 0.087, V -0.008 ± 0.081, W -0.018 ± 0.18
G13: A 0.23 ± 0.083, C 0.271 ± 0.085, D 0.079 ± 0.11, F 0.079 ± 0.11, H 0.079 ± 0.094, I 0.188 ± 0.11, K 0.168 ± 0.094, L 0.197 ± 0.079, M 0.324 ± 0.099, N 0.307 ± 0.19, P -0.237 ± 0.083, Q 0.253 ± 0.1, R 0.005 ± 0.072, S 0.154 ± 0.082, T 0.218 ± 0.083, V 0.198 ± 0.08, W 0.055 ± 0.082, Y -0.136 ± 0.15
L14: A 0.064 ± 0.088, C -0.119 ± 0.11, D -0.24 ± 0.1, E 0.053 ± 0.1, F -0.4 ± 0.13, G -0.184 ± 0.078, H -0.397 ± 0.09, I -0.263 ± 0.086, K -0.209 ± 0.12, M 0.053 ± 0.082, N -0.479 ± 0.14, P -0.248 ± 0.088, Q -0.173 ± 0.11, R -0.332 ± 0.08, S -0.101 ± 0.077, T -0.334 ± 0.1, W -0.467 ± 0.1, Y -0.458 ± 0.14
K15: A -0.107 ± 0.069, C -0.27 ± 0.093, D -0.271 ± 0.14, E 0.187 ± 0.11, F -0.164 ± 0.088, G -0.274 ± 0.07, H -0.127 ± 0.087, I 0.017 ± 0.095, L -0.13 ± 0.075, M 0.149 ± 0.12, N -0.135 ± 0.093, Q 0.061 ± 0.093, R -0.1 ± 0.073, S -0.184 ± 0.082, T 0.001 ± 0.081, V -0.103 ± 0.087, W -0.412 ± 0.094
